The nature of series [1]: folding stability dG unfold from chymotrypsin proteolysis; higher = more stable. Put shortly:
(§1)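 Digests were run with trypsin and chymotrypsin at 11 concentrations in threefold dilutions, plus a no-protease condition, on designed mini-proteins in a PA-tagged cDNA display construct. The mini-proteins were under 80 residues, had no cysteine, and were kept only when AlphaFold2 dimer inter-PAE was above 15. After sequencing, Bayesian fitting of the counts gave K50, from which unfolding free energy was derived against a sequence-predicted unfolded-state K50 and a shared folded-state K50, per protease or combined.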

Series [2] is described as follows: folding stability dG unfold from trypsin proteolysis; higher = more stable. In short, it runs like this:
as §1

Series [3] in a line: folding stability dG unfold (combined trypsin and chymotrypsin); higher = more stable. Put shortly:
as §1

± gives the half width of the 95% confidence interval.

On to “SAGGSAMKKTITVTLSYPETGETRTVTVELTDIPESDPEKWKALAEEVAEALAKERGAEVLGIEISSAGGSA [r15_1013_JUSTAS]”, for which the entries for the “folding stability dG unfold” value in series [1], in series [2] and in series [3] were 19.3 ± 0.276 kJ/mol, 20.5 ± 0.586 kJ/mol and 19.7 ± 0.272 kJ/mol, respectively.

For the sequence “SAGGSAMKKTTATFYVRPDSLTVEIELGEKTKKLTFDPSVSIEEVKASLPDYVDEVKVKPASPSLSSAGGSA [r15_1058_JUSTAS]”, the “folding stability dG unfold” value in series [1] is 2.21 ± 1.13 kJ/mol; in series [2], -1.8 ± 1 kJ/mol; in series [3], 1.01 ± 0.586 kJ/mol.

Take “SAGGSAMKKVTVTVKFPDGTTYTFDMDTESEEEFEKKVREEALKRFPDIPLEDVEVTEVVVTPELLSAGGSA [r15_220_JUSTAS]”: the “folding stability dG unfold” value in series [1] was 9.97 ± 0.163 kJ/mol; in series [2], 9.61 ± 0.669 kJ/mol; in series [3], 9.77 ± 0.502 kJ/mol.

Regarding “SAGGSAMKLVLTFPEGLPEIPLEELAKAIEDALPEDFEVKEIKVEPLPDGGLRLTFIVNDEEVEILSAGGSA [r15_451_TrMRF]”, the “folding stability dG unfold” value in series [1] came to 10.54 ± 0.0711 kJ/mol; in series [2], 10.5 ± 0.259 kJ/mol; in series [3], 10.6 ± 0.201 kJ/mol.

Take “SAGGSAMKPGEPVEFNIMIKIRDPNGKPVGEIDIKVEYPKGQSESQMFDRARNEINNLAPEGHLEISAGGSA [r15_310_TrROS]”: the “folding stability dG unfold” value in series [1] is 2.03 ± 0.879 kJ/mol; in series [2], 0.373 ± 0.364 kJ/mol; in series [3], 1.65 ± 0.586 kJ/mol.

For “SAGGSAMKVIRIRPDDPRVKELLKKLEDAGYEVRYDEETGELYVTLPDGKVLKFKSLEELKKAGFESAGGSA [r15_94_TrROS_Hall]”, the figures for the “folding stability dG unfold” value in series [1], in series [2] and in series [3] were 9.17 ± 0.418 kJ/mol, 6.8 ± 0.121 kJ/mol and 8.09 ± 0.368 kJ/mol, respectively.

Consider “SAGGSAMKVVFYGDEASQKEIAEKAKKEGIEYEAYPGSREEILAYVKENYPDVKMIVYPEGKEYLISAGGSA [r15_712_JUSTAS]”, for which the “folding stability dG unfold” value in series [1] was 0.393 ± 0.753 kJ/mol; in series [2] it was 0.377 ± 0.301 kJ/mol; in series [3], 0.749 ± 0.305 kJ/mol.

In the case of “SAGGSAMPADEVVEVREITDPATGKKVTVVRNKETGRYFVRVENPDGETEVFEVPGMTAEELEELASAGGSA [r15_295_TrROS_Hall]”, the “folding stability dG unfold” value came out at 10.9 ± 0.213 kJ/mol in series [1], 9.73 ± 0.234 kJ/mol in series [2] and 10.5 ± 0.418 kJ/mol in series [3].

For “SAGGSAMPGMTLQELLDAIRALLPPGARARIYVRNPDGEVIELTDLDDITVEDLENAEIRIEIEPVSAGGSA [r15_144_TrROS_Hall]”, the results for the “folding stability dG unfold” value in series [1], in series [2] and in series [3] were 16.8 ± 0.218 kJ/mol, 15.5 ± 0.418 kJ/mol and 16.2 ± 0.318 kJ/mol, respectively.

For “SAGGSAMPIELDLVIEIPIDAHPDQTVEDLVEEIAERIRRLLPPDTVVELRVHLHPELGVALADVSSAGGSA [r15_739_TrMRF]”, the “folding stability dG unfold” value in series [1] is 0.49 ± 0.364 kJ/mol; in series [2] it was 6.52 ± 0.163 kJ/mol; in series [3], 4.14 ± 0.339 kJ/mol.

“SAGGSAMPKFYLDENGNPVYELPEEPTINTPLKIGIFDEENNPAIEIEIPGSTPLEEIIQKIKDAASAGGSA [r15_309_TrMRF]”: the “folding stability dG unfold” value in series [1] turned out to be 2.02 ± 0.586 kJ/mol; in series [2], 2.82 ± 0.272 kJ/mol; in series [3], 2.83 ± 0.837 kJ/mol.

Take “SAGGSAMPPGEPIGSFSFPFNNGGNLMISAYPGGEIKISWWGPDGRPHEHEFPVKVKPPPPEDEGKSAGGSA [r15_478_TrROS]”: the results for the “folding stability dG unfold” value in series [1], in series [2] and in series [3] were 6.85 ± 0.293 kJ/mol, 5.55 ± 0.222 kJ/mol and 6.68 ± 0.795 kJ/mol, respectively.

Take “SAGGSAMPPNMKKVPISIHIPAENYKRDPDGKWKFTADELARHIQRGFRQRFGMPIKKIDVHVHPPSAGGSA [r15_415_TrROS]”: the entries for the “folding stability dG unfold” value in series [1], in series [2] and in series [3] were 0.0187 ± 1.3 kJ/mol, -0.00194 ± 1.3 kJ/mol and -0.113 ± 0.879 kJ/mol, respectively.

As for “SAGGSAMRMERIKLPDGKDITIMRHPNEPRQYQLFFPGGRSISVNFPSPEEAIDHALEWIKNGKPFSAGGSA [r15_38_TrROS]”, the results for the “folding stability dG unfold” value in series [1], in series [2] and in series [3] were 3.2 ± 0.544 kJ/mol, 2.55 ± 0.502 kJ/mol and 3.26 ± 0.406 kJ/mol, respectively.

For “SAGGSAMSIPLEELIEYVKKPGYKITEKKLPNGTLEITITNPKTGKTTKVTVYPPPTFSVEIKPDPSAGGSA [r15_442_JUSTAS]”, the results for the “folding stability dG unfold” value in series [1], in series [2] and in series [3] were 3.67 ± 0.502 kJ/mol, 5.36 ± 0.142 kJ/mol and 4.5 ± 0.381 kJ/mol, respectively.

As to “SAGGSAMSKDVLFENGARITKFFPGKNYVIIETSPENPELLKELGITVIKEGPNRIIVPAKDFLDESAGGSA [r15_984_TrMRF]”, the “folding stability dG unfold” value in series [1] is -3.43 ± 3.26 kJ/mol; in series [2], -5.37 ± 3.1 kJ/mol; in series [3], -3.62 ± 3.35 kJ/mol.

Regarding “SAGGSAMSLSDIKDVDVYRNPNGWYTAKLKIKDPNNGKDKEVNIHVPPGQTPEKAKNIAREILKELSAGGSA [r15_181_TrROS]”, the figures for the “folding stability dG unfold” value in series [1], in series [2] and in series [3] were 5.97 ± 0.46 kJ/mol, 2.54 ± 0.126 kJ/mol and 4.77 ± 0.36 kJ/mol, respectively.

“SAGGSAMSVDPVGERTTITILYKDKPVTVPTGPLEEVEREVAAVLEEIEAKTGRKISPDTEVSFVPSAGGSA [r15_496_JUSTAS]”: the figures for the “folding stability dG unfold” value in series [1], in series [2] and in series [3] were 2.49 ± 0.711 kJ/mol, -1.19 ± 1.26 kJ/mol and 1.33 ± 0.669 kJ/mol, respectively.

The values above are taken from the supplement of paper PMC12764529.
